Results from US20160130654A1, “SYSTEMS AND METHODS FOR DIAGNOSING AND TREATING CANCER” (THE TRANSLATIONAL GENOMICS RESEARCH INSTITUTE, priority 2013, published 2016).

Key:
Assay type in all cases: cell-based, Human
H2073 cells = test: Clonogenic (colony-formation) assay
Procedure: FIGS. 6A-6F illustrate that TWEAK-induced NSCLC cell survival is dependent on Mcl-1 expression. H1975 (FIG. 6A) and H2073 (FIG. 6B) cells were transfected with luciferase (siCont) or siRNAs targeting Mcl-1. Total lysates were collected 72 hours post-transfection and immunoblotted for Mcl-1 and alpha-tubulin. H1975 (FIGS. 6C and 6E) and H2073 (FIGS. 6D and 6F) cells transfected with control or siRNA constructs targeting Mcl-1 were exposed to 1 μM cisplatin for 24 hours (FIGS. 6C and 6D) or 2Gy ionizing radiation (FIGS. 6E and 6F)±pre-incubation with TWEAK (100 ng/mL). Cells were sparsely seeded into 6-well dishes and allowed to grow for 7 days prior to staining with crystal violet and colony counting. A colony was defined as containing at least 50 cells. […]
Observations of colony forming capacity following cytotoxic insult were performed as previously described (Franken N A, Rodermond H M, Stap J, Haveman J, van Bree C. Clonogenic assay of cells in vitro. Nat Protoc. 2006; 1:2315-9). […] Cells were then trypsinized, quantified, and equally dispersed in triplicate in 6-well cell culture dishes at 250 cells per well. […] Apparent colonies were counted. […] Statistical significance, defined as a p value <0.05, was determined by ANOVA analysis with Bonferroni posttests in Graphpad Prism.

H1975 cells = test: Clonogenic (colony-formation) assay
Procedure: FIGS. 6A-6F illustrate that TWEAK-induced NSCLC cell survival is dependent on Mcl-1 expression. H1975 (FIG. 6A) and H2073 (FIG. 6B) cells were transfected with luciferase (siCont) or siRNAs targeting Mcl-1. Total lysates were collected 72 hours post-transfection and immunoblotted for Mcl-1 and alpha-tubulin. H1975 (FIGS. 6C and 6E) and H2073 (FIGS. 6D and 6F) cells transfected with control or siRNA constructs targeting Mcl-1 were exposed to 1 μM cisplatin for 24 hours (FIGS. 6C and 6D) or 2Gy ionizing radiation (FIGS. 6E and 6F)±pre-incubation with TWEAK (100 ng/mL). Cells were sparsely seeded into 6-well dishes and allowed to grow for 7 days prior to staining with crystal violet and colony counting. A colony was defined as containing at least 50 cells. Bars represent average of three independent wells±standard error with the non-treated (first bar) set to 1. * represents a p value <0.05 by ANOVA with Bonferroni posttest.
H1975 (FIG. 7A) and H2073 (FIG. 7B) cells were transfected with luciferase (siCont) or siRNA targeting Bcl-xL. Total lysates were collected 72 hours post-transfection and immunoblotted for Bcl-xL and alpha-tubulin. H1975 (FIGS. 7C and 7E) and H2073 (FIGS. 7D and 7F) cells transfected with control or siRNA construct targeting Bcl-xL were exposed to 1 μM cisplatin for 24 hours (FIGS. 7C and 7D) or 2Gy ionizing radiation (FIGS. 7E and 7F)±pre-incubation with TWEAK (100 ng/mL). Cells were sparsely seeded into 6-well dishes and allowed to grow for 7 days prior to staining with crystal violet and colony counting. A colony was defined as containing at least 50 cells. Bars represent average of three independent wells±standard error with the non-treated (first bar) set to 1. * represents a p value <0.05 by ANOVA with Bonferroni posttest.
H1975 (FIGS. 11A and 11B) cells were pre-incubated with TWEAK (100 ng/mL), (FIG. 11A) EU-5148 (10 μM), (FIG. 11B) ABT-737 (10 […]) or both drug and TWEAK prior to exposure to 2Gy ionizing radiation. Cells were sparsely seeded (125 cells) into 6-well dishes and allowed to grow for 7 days prior to staining with crystal violet and colony counting. A colony was defined as containing at least 50 cells. Bars represent average of three independent wells±standard error with the non-treated (first bar) set to 1. * represents a p value <0.05 by ANOVA with Bonferroni posttest.
FIGS. 12A-12C illustrate that pharmacologic inhibition of Mcl-1 abrogates TWEAK-mediated cell survival. […]
Observations of colony forming capacity following cytotoxic insult were performed as previously described (Franken N A, Rodermond H M, Stap J, Haveman J, van Bree C. Clonogenic assay of cells in vitro. Nat Protoc. 2006; 1:2315-9). […] Cells were then trypsinized, quantified, and equally dispersed in triplicate in 6-well cell culture dishes at 250 cells per well. […]

[1] = system: cleaved-PARP in H1975 cells; test: Cleaved-PARP immunoblot (apoptosis)
Procedure: FIGS. 8A and 8B illustrate that depletion of Mcl-1 abrogates TWEAK-induced protection from cell death induced by DNA damage. H1975 cells were transfected with either siRNA targeting luciferase (control) or Mcl-1. Cells were exposed to 5 uM cisplatin (FIG. 8A) or 8Gy radiation (FIG. 8B) for 0, 4 or 24 hours±pre-incubation with TWEAK (100 ng/mL). Total cell lysates were prepared and immunoblotted for cleaved-PARP (cPARP) and GAPDH as a loading control. All blots were run in duplicate.
Mcl-1, Bcl-2, Bcl-xL, phospho-p65 (Serine residue 536), Bak, GAPDH, and cleaved-PARP antibodies were obtained from Cell Signaling Technology Inc. (Beverly, Mass.), and α-tubulin antibody was obtained from Millipore (San Diego, Calif.). Human recombinant TWEAK was purchased from PeproTech (Rock Hill, N.J.), and cisplatin was obtained from TZS Chemical via BIOTANG Inc. (Waltham, Mass.). The Mcl-1-specific inhibitor EU-5148 was kindly provided by Eutropics Pharmaceuticals (Cambridge, Mass.). ABT-737 was obtained from Selleck Chemicals (Houston, Tex.). […]

[2] = system: phosphorylated p65, Mcl-1, Bcl-xL, Bcl-2 in H1975 cells; test: Immunoblot after TWEAK treatment
Procedure: (§1) FIGS. 4A-4C illustrate that TWEAK induces Mcl-1 in NSCLC cell lines in an NF-κB-dependent manner. Total cell lysates were prepared from serum-reduced (FIG. 4A) H1975 and (FIG. 4B) H2073 cell lines treated with TWEAK for the indicated times and immunoblotted with the indicated antibodies: Mcl-1, Bcl-xL, and phosphorylated-p65 (Ser536). Tubulin was used as a loading control. (FIG. 4C) Serum-reduced H2073 cells transfected±IkBα mutant were treated with TWEAK for 24 hours. Cells were harvested, total cell lysates were prepared and immunoblotted with the indicated antibodies to both Mcl-1 and phospho-p65. All blots were run in duplicate and tubulin was used as a loading control.
(§2) Human lung adenocarcinoma cell lines H1975 and H2073 (ATCC, Manassas, Va.) were maintained in RPMI 1640 media (Invitrogen, Carlsbad, Calif.) plus 10% heat-inactivated fetal bovine serum (FBS) in a 37° C., 5% CO2 atmosphere. SU-DHL10 (Deng J, Carlson N, Takeyama K, Dal Cin P, Shipp M, Letai A. BH3 profiling identifies three distinct classes of apoptotic blocks to predict response to ABT-737 and conventional chemotherapeutic agents. Cancer Cell. 2007; 12:171-85), Bcl-2 1863 and Mcl-1 1780 cell lines (Ryan J A, Brunelle J K, Letai A. Heightened mitochondrial priming is the basis for apoptotic hypersensitivity of CD4+CD8+ thymocytes. Proc Natl Acad Sci USA. 2010; 107:12895-900) were maintained in RPMI 1640 plus 10% FBS with 50 μM β-mercaptoethanol added to 1863 and 1780 cells. In all assays treated with TWEAK, cells were cultured in reduced serum (0.5% FBS) for 16 hours prior to stimulation with TWEAK at 100 ng/mL in RPMI+0.1% bovine serum albumin (BSA) for the indicated times.
(§3) Mcl-1, Bcl-2, Bcl-xL, phospho-p65 (Serine residue 536), Bak, GAPDH, and cleaved-PARP antibodies were obtained from Cell Signaling Technology Inc. (Beverly, Mass.), and α-tubulin antibody was obtained from Millipore (San Diego, Calif.). Human recombinant TWEAK was purchased from PeproTech (Rock Hill, N.J.), and cisplatin was obtained from TZS Chemical via BIOTANG Inc. (Waltham, Mass.). The Mcl-1-specific inhibitor EU-5148 was kindly provided by Eutropics Pharmaceuticals (Cambridge, Mass.). ABT-737 was obtained from Selleck Chemicals (Houston, Tex.). Immunoblot analysis was performed as previously described (Whitsett T G, Cheng E, Inge L, Asrani K, Jameson N M, Hostetter G, et al. Elevated expression of Fn14 in non-small cell lung cancer correlates with activated EGFR and promotes tumor cell migration and invasion. Am J Pathol. 2012; 181:111-20; Tran N L, McDonough W S, Savitch B A, Sawyer T F, Winkles J A, Berens M E. The tumor necrosis factor-like weak inducer of apoptosis (TWEAK)-fibroblast growth factor-inducible 14 (Fn14) signaling system regulates glioma cell survival via NFkB pathway activation and BCL-XL/BCL-W expression. J Biol Chem. 2005; 280:3483-92).

[3] = system: phosphorylated p65, Mcl-1, Bcl-xL in H2073 cells; test: Immunoblot after TWEAK treatment; settings: H2073, TWEAK 100 ng/mL
Procedure: as §1, §2, §3

[4] = system: Mcl-1 and Bcl-xL mRNA in H2073 cells; test: qPCR of Mcl-1 and Bcl-xL mRNA after TWEAK; settings: H2073, TWEAK 100 ng/mL, maximal at about 6 hours
Procedure: (§4) FIGS. 5A and 5B illustrate that TWEAK exposure enhances Mcl-1 and Bcl-xL mRNA expression. Total RNA was collected from (FIG. 5A) H1975 and (FIG. 5B) H2073 cells treated with 100 ng/mL TWEAK for the indicated time points. mRNA expression of Mcl-1 and Bcl-xL were determined by qPCR with histone H3.3 mRNA levels used as endogenous control. Bars represent the average±standard error of triplicate qPCR reactions. * represents a p value <0.05 compared to no treatment (of the respective gene) by Student's t test. All assays were run in duplicate.
(§5) Human lung adenocarcinoma cell lines H1975 and H2073 (ATCC, Manassas, Va.) were maintained in RPMI 1640 media (Invitrogen, Carlsbad, Calif.) plus 10% heat-inactivated fetal bovine serum (FBS) in a 37° C., 5% CO2 atmosphere. […]
(§6) mRNA expression was determined by qPCR as previously described (Fortin Ensign S P, Mathews I T, Eschbacher J M, Loftus J C, Symons M H, Tran N L. The Src homology 3 domain-containing guanine nucleotide exchange factor is overexpressed in high-grade gliomas and promotes tumor necrosis factor-like weak inducer of apoptosis-fibroblast growth factor-inducible 14-induced cell migration and invasion via tumor necrosis factor receptor-associated factor 2. J Biol Chem. 2013; 288:21887-97). […]

[5] = system: Mcl-1 and Bcl-xL mRNA in H1975 cells; test: qPCR of Mcl-1 and Bcl-xL mRNA after TWEAK; settings: H1975, TWEAK 100 ng/mL, maximal at about 6 hours
Procedure: as §4, §5, §6

For `N.N.[Cl][Pt][Cl]` [cisplatin, reference compound], the “cell survival (colony formation)” value (H2073 cells; H2073, 1 μM cisplatin) was “significantly reduced NSCLC cell survival”, the “cell survival (colony formation)” value (H1975 cells; H1975, 1 μM cisplatin) was “significantly reduced NSCLC cell survival” and the “protein expression of cleaved-PARP” value ([1]; H1975, 5 uM cisplatin, 0, 4 or 24 hours) was “induces protein expression of cleaved-PARP over time”.

`CN(C)CC[C@H](CSc1ccccc1)Nc1ccc(S(=O)(=O)NC(=O)c2ccc(N3CCN(Cc4ccccc4-c4ccc(Cl)cc4)CC3)cc2)cc1[N+](=O)[O-]` [ABT-737] was tested, and the “effect on TWEAK-induced cell survival” value (H1975 cells; H1975, drug 10 μM plus TWEAK 100 ng/mL, 2Gy ionizing radiation) was “lesser effect on TWEAK-induced cell survival” and the “sensitivity to radiation (cell survival, colony count)” value (H1975 cells; H1975, drug 10 μM pre-incubation, 2Gy ionizing radiation) was “did sensitize H1975 cells to radiation”.

B1: TWEAK: Human recombinant tumor necrosis factor-like weak inducer of apoptosis, purchased from PeproTech (protein, UniProt O43508 94-249, looked up)
Tumor necrosis factor ligand …: SAPKGRKTRARRAIAAHYEVHPRPGQDGAQAGVDGTVSGWEEARINSSSPLRYNRQIGEFIVTRAGLYYLYCQVHFDEGKAVYLKLDLLVDGVLALRCLEEFSATAASSLGPQLRLCQVSGLLALRPGSSLRIRTLPWAHLKAAPFLTYFGLFQVH
With B1 the “cell survival after cisplatin or radiation with TWEAK pre-treatment” value (H2073 cells; H2073, TWEAK 100 ng/mL, 1 μM cisplatin or 2Gy) was “significantly attenuated the effects of either cisplatin or radiation”, the “cell survival after cisplatin or radiation with TWEAK pre-treatment” value (H1975 cells; H1975, TWEAK 100 ng/mL, 1 μM cisplatin or 2Gy) was “significantly attenuated the effects of either cisplatin or radiation” and the “phosphorylated p65 (P-p65)” value ([2]; H1975, TWEAK 100 ng/mL) was “clear induction”. For the same molecule, the “protein expression of Mcl-1 and Bcl-xL over time” value ([2]; H1975, TWEAK 100 ng/mL) was “incremental increases”, the “protein expression of Bcl-2” value ([2]; H1975, TWEAK exposure) was “up-regulated” and the “phosphorylated p65 (P-p65)” value [3] was “clear induction”. The “protein expression of Mcl-1 and Bcl-xL over time” value [3] was “incremental increases”, the “maximal increase of Mcl-1 and Bcl-xL mRNA levels” value [4] was 50 fold and the “maximal increase of Mcl-1 and Bcl-xL mRNA levels” value [5] was 10 fold. The “induction of cleaved-PARP with TWEAK pretreatment” value ([1]; H1975, TWEAK 100 ng/mL, 5 uM cisplatin or 8Gy radiation, 4 or 24 hours) was “completely abrogates the induction of cleaved-PARP”.
